# Results taken from IntAct's records for PubMed 25616961.
# B1: Heterogeneous nuclear ribonucleoprotein A1 (Homo sapiens), P09651-2 (parent)
# chain: MSKSESPKEPEQLRKLFIGGLSFETTDESLRSHFEQWGTLTDCVVMRDPNTKRSRGFGFVTYATVEEVDAAMNARPHKVDGRVVEPKRAVSREDSQRPGAHLTVKKIFVGGIKEDTEEHHLRDYFEQYGKIEVIEIMTDRGSGKKRGFAFVTFDDHDSVDKIVIQKYHTVNGHNCEVRKALSKQEMASASSSQRGRSGSGNFGGGRGGGFGGNDNFGRGGNFSGRGGFGGSRGGGGYGGSGDGYNGFGNDGSNFGGGGSYNDFGNYNNQSSNFGPMKGGNFGGRSSGPYGGGGQYFAKPRNQGGYGGSSSSSSYGSGRRF
# Variants of: B1
# Details: with ubql2_human UBQLN2, Q9UHD9
# Chain of ubql2_human UBQLN2, Q9UHD9 (Q9UHD9 whole entry): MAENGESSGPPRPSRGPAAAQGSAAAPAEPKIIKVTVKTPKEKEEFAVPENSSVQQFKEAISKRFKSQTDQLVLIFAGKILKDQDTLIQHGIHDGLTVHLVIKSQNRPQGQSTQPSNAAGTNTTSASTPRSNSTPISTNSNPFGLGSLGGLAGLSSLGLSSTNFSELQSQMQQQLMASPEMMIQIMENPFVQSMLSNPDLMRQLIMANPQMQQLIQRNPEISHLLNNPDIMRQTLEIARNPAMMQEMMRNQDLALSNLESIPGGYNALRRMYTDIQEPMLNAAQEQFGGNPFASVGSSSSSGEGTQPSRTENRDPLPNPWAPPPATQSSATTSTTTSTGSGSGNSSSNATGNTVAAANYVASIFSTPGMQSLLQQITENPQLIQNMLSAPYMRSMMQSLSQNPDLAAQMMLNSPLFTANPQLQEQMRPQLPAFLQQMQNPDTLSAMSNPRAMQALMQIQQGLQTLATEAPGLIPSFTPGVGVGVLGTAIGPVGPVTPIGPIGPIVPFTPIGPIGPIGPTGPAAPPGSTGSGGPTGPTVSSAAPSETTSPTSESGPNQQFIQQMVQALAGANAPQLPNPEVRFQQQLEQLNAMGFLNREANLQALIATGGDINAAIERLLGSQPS
row,Variant,effect of a mutation on the interaction
1,D262V,decreasing interaction
